Stoichiometry N data for one substance are collected here from article doi:10.1101/2025.06.14.659724.

In this assay the target is PSR2-PDF1-Cα heterotrimer (not stated | A. thaliana | human) (UniProt E0W4V5). As to the kind of experiment: cryo-EM structure.

Consider “PSR2-PDF1-Cα heterotrimer (from UniProt E0W4V5;P67775) (complex)”, for which the stoichiometry N (in general, the number of molecules, sites or subunits per partner or assembly) was 2.
